Test results taken from article PMC11005391, “Tetramerization is essential for the enzymatic function of the Pseudomonas aeruginosa virulence factor UDP-glucose pyrophosphorylase” (mBio, 2024).

Legend:
[1] = target: the molecule itself; assay: native gel or EMSA; blue native PAGE, uniform 12% polyacrylamide gel with 3.5% stacking gel, 13.5 ug of each protein loaded, Coomassie-stained bands
[2] = target: the molecule itself; assay: SEC; as a1, but the more diluted sample of mutants with dilution-dependent behaviour (footnote b of Table 1; broken lines in Fig. 5 and Fig. S9)
[3] = target: the molecule itself; assay: cell-based or functional assay
Q9I291 [4] = assay: SEC; as a1, but the more diluted sample of mutants with dilution-dependent behaviour (footnote b of Table 1; broken lines in Fig. 5 and Fig. S9)
Q9I291 [5] = assay: SEC; Superdex 200 10/300 GL, 50 mM Tris-HCl pH 8.0, 300 mM NaCl, 10 mM MgCl2; oligomeric state calculated from elution volumes of proteins of known size; addition of UTP, Glc-1-P or UDP-Glc did not affect the oligomerization of the WT
[6] = target: the molecule itself; assay: as above
[7] = target: the molecule itself; assay: as above; remark: listed apart in the source

| Protein | stoichiometry N [1] | stoichiometry N [2] | In vitro activity (% of WT), EnzChek pyrophosphate assay, forward reaction [3] | N of the monomer peak (minor peak) (Q9I291 [4]) | N of a minor peak [2] | N of the monomer peak (main peak) (Q9I291 [4]) | N of the monomer peak (minor peak) (Q9I291 [5]) | stoichiometry N [6] | stoichiometry N [7] |
| --- | --- | --- | --- | --- | --- | --- | --- | --- | --- |
| PaUGP R57A (enzyme, UDP-glucose pyrophosphorylase of Pseudomonas aeruginosa (galU), residues 1-279, point mutant of Strep-PaUGP; Same construct as m1; source: E. coli BL21(DE3), purified (Strep-Tactin Sepharose); not shown: Strep-tagII, N-terminal, kept) MIKKCLFPAAGYGTRFLPATKAMPKEMLPVVNKPLIQYAVEEALEAGLSEIGIVTGAGKRSLEDHFDISYELEHQIRNTDKEKYLVGIRRLIDECTFAYTRQVEMKGLGHAILTGRPLIGDEPFAVVLADDLCLNLEGDSVLKQMVKLYNQFRCSIVAIQEVPPEETNKYGVIAGEMIRDDIFRVNTMVEKPKPEEAPSNLAIIGRYILTPDIFDLIEQTEPGKGGEIQITDALMKQAQDGCVLAYKFKGKRFDCGSAEGYIEATNFCYENLYKTGKAH | 4 | 2.4 | 1.28 % of WT | 1.2 |  |  |  |  |  |
| PaUGP K21Q (enzyme, UDP-glucose pyrophosphorylase of Pseudomonas aeruginosa (galU), residues 1-279, point mutant of Strep-PaUGP; Same construct as m1; source: E. coli BL21(DE3), purified (Strep-Tactin Sepharose); not shown: Strep-tagII, N-terminal, kept) MIKKCLFPAAGYGTRFLPATQAMPKEMLPVVNKPLIQYAVEEALEAGLSEIGIVTGRGKRSLEDHFDISYELEHQIRNTDKEKYLVGIRRLIDECTFAYTRQVEMKGLGHAILTGRPLIGDEPFAVVLADDLCLNLEGDSVLKQMVKLYNQFRCSIVAIQEVPPEETNKYGVIAGEMIRDDIFRVNTMVEKPKPEEAPSNLAIIGRYILTPDIFDLIEQTEPGKGGEIQITDALMKQAQDGCVLAYKFKGKRFDCGSAEGYIEATNFCYENLYKTGKAH |  |  | 1.26 % of WT |  | 2.7 | 1.4 |  |  |  |
| PaUGP Y70F (enzyme, UDP-glucose pyrophosphorylase of Pseudomonas aeruginosa (galU), residues 1-279, point mutant of Strep-PaUGP; Same construct as m1; source: E. coli BL21(DE3), purified (Strep-Tactin Sepharose); not shown: Strep-tagII, N-terminal, kept) MIKKCLFPAAGYGTRFLPATKAMPKEMLPVVNKPLIQYAVEEALEAGLSEIGIVTGRGKRSLEDHFDISFELEHQIRNTDKEKYLVGIRRLIDECTFAYTRQVEMKGLGHAILTGRPLIGDEPFAVVLADDLCLNLEGDSVLKQMVKLYNQFRCSIVAIQEVPPEETNKYGVIAGEMIRDDIFRVNTMVEKPKPEEAPSNLAIIGRYILTPDIFDLIEQTEPGKGGEIQITDALMKQAQDGCVLAYKFKGKRFDCGSAEGYIEATNFCYENLYKTGKAH | 4 |  | 47.2 % of WT |  |  |  | 1.3 | 3.7 |  |
| PaUGP R101K (enzyme, UDP-glucose pyrophosphorylase of Pseudomonas aeruginosa (galU), residues 1-279, point mutant of Strep-PaUGP; Same construct as m1; source: E. coli BL21(DE3), purified (Strep-Tactin Sepharose); not shown: Strep-tagII, N-terminal, kept) MIKKCLFPAAGYGTRFLPATKAMPKEMLPVVNKPLIQYAVEEALEAGLSEIGIVTGRGKRSLEDHFDISYELEHQIRNTDKEKYLVGIRRLIDECTFAYTKQVEMKGLGHAILTGRPLIGDEPFAVVLADDLCLNLEGDSVLKQMVKLYNQFRCSIVAIQEVPPEETNKYGVIAGEMIRDDIFRVNTMVEKPKPEEAPSNLAIIGRYILTPDIFDLIEQTEPGKGGEIQITDALMKQAQDGCVLAYKFKGKRFDCGSAEGYIEATNFCYENLYKTGKAH |  | 2.1 | 1.31 % of WT | 1.2 |  |  |  |  |  |
| PaUGP N266D (enzyme, UDP-glucose pyrophosphorylase of Pseudomonas aeruginosa (galU), residues 1-279, point mutant of Strep-PaUGP; Same construct as m1; source: E. coli BL21(DE3), purified (Strep-Tactin Sepharose); not shown: Strep-tagII, N-terminal, kept) MIKKCLFPAAGYGTRFLPATKAMPKEMLPVVNKPLIQYAVEEALEAGLSEIGIVTGRGKRSLEDHFDISYELEHQIRNTDKEKYLVGIRRLIDECTFAYTRQVEMKGLGHAILTGRPLIGDEPFAVVLADDLCLNLEGDSVLKQMVKLYNQFRCSIVAIQEVPPEETNKYGVIAGEMIRDDIFRVNTMVEKPKPEEAPSNLAIIGRYILTPDIFDLIEQTEPGKGGEIQITDALMKQAQDGCVLAYKFKGKRFDCGSAEGYIEATDFCYENLYKTGKAH | 4 |  | 105 % of WT |  |  |  | 1.2 | 4.2 |  |
| PaUGP R101A (enzyme, UDP-glucose pyrophosphorylase of Pseudomonas aeruginosa (galU), residues 1-279, point mutant of Strep-PaUGP; Same construct as m1; source: E. coli BL21(DE3), purified (Strep-Tactin Sepharose); not shown: Strep-tagII, N-terminal, kept) MIKKCLFPAAGYGTRFLPATKAMPKEMLPVVNKPLIQYAVEEALEAGLSEIGIVTGRGKRSLEDHFDISYELEHQIRNTDKEKYLVGIRRLIDECTFAYTAQVEMKGLGHAILTGRPLIGDEPFAVVLADDLCLNLEGDSVLKQMVKLYNQFRCSIVAIQEVPPEETNKYGVIAGEMIRDDIFRVNTMVEKPKPEEAPSNLAIIGRYILTPDIFDLIEQTEPGKGGEIQITDALMKQAQDGCVLAYKFKGKRFDCGSAEGYIEATNFCYENLYKTGKAH |  | 1.8 | 0.83 % of WT | 1.2 | 3.6 |  |  |  |  |
| PaUGP K21A (enzyme, UDP-glucose pyrophosphorylase of Pseudomonas aeruginosa (galU), residues 1-279, point mutant of Strep-PaUGP; source: E. coli BL21(DE3), purified (Strep-Tactin Sepharose); not shown: Strep-tagII, N-terminal, kept) MIKKCLFPAAGYGTRFLPATAAMPKEMLPVVNKPLIQYAVEEALEAGLSEIGIVTGRGKRSLEDHFDISYELEHQIRNTDKEKYLVGIRRLIDECTFAYTRQVEMKGLGHAILTGRPLIGDEPFAVVLADDLCLNLEGDSVLKQMVKLYNQFRCSIVAIQEVPPEETNKYGVIAGEMIRDDIFRVNTMVEKPKPEEAPSNLAIIGRYILTPDIFDLIEQTEPGKGGEIQITDALMKQAQDGCVLAYKFKGKRFDCGSAEGYIEATNFCYENLYKTGKAH |  |  | 5 % of WT |  | 2.3 | 1.2 |  |  |  |
| PaUGP H74A (enzyme, UDP-glucose pyrophosphorylase of Pseudomonas aeruginosa (galU), residues 1-279, point mutant of Strep-PaUGP; Same construct as m1; source: E. coli BL21(DE3), purified (Strep-Tactin Sepharose); not shown: Strep-tagII, N-terminal, kept) MIKKCLFPAAGYGTRFLPATKAMPKEMLPVVNKPLIQYAVEEALEAGLSEIGIVTGRGKRSLEDHFDISYELEAQIRNTDKEKYLVGIRRLIDECTFAYTRQVEMKGLGHAILTGRPLIGDEPFAVVLADDLCLNLEGDSVLKQMVKLYNQFRCSIVAIQEVPPEETNKYGVIAGEMIRDDIFRVNTMVEKPKPEEAPSNLAIIGRYILTPDIFDLIEQTEPGKGGEIQITDALMKQAQDGCVLAYKFKGKRFDCGSAEGYIEATNFCYENLYKTGKAH | 4 |  | 60.3 % of WT |  |  |  | 1.3 | 3.7 |  |
| Pseudomonas aeruginosa uridine diphosphate-glucose pyrophosphorylase, wild type (Strep-PaUGP) (enzyme, UDP-glucose pyrophosphorylase (UGP, EC 2.7.7.9) of Pseudomonas aeruginosa, galU gene amplified from plasmid PaCD00006903; residues 1-279; no cleavage is reported; Crystallised with UDP-Glc and Mg2+; also called PaUGP WT; Strep-tagged PaUGP; source: E. coli BL21(DE3), purified (Strep-Tactin Sepharose); not shown: Strep-tagII, N-terminal, kept) MIKKCLFPAAGYGTRFLPATKAMPKEMLPVVNKPLIQYAVEEALEAGLSEIGIVTGRGKRSLEDHFDISYELEHQIRNTDKEKYLVGIRRLIDECTFAYTRQVEMKGLGHAILTGRPLIGDEPFAVVLADDLCLNLEGDSVLKQMVKLYNQFRCSIVAIQEVPPEETNKYGVIAGEMIRDDIFRVNTMVEKPKPEEAPSNLAIIGRYILTPDIFDLIEQTEPGKGGEIQITDALMKQAQDGCVLAYKFKGKRFDCGSAEGYIEATNFCYENLYKTGKAH |  |  |  |  |  |  |  |  | 4 |
| PaUGP R57K (enzyme, UDP-glucose pyrophosphorylase of Pseudomonas aeruginosa (galU), residues 1-279, point mutant of Strep-PaUGP; Same construct as m1; source: E. coli BL21(DE3), purified (Strep-Tactin Sepharose); not shown: Strep-tagII, N-terminal, kept) MIKKCLFPAAGYGTRFLPATKAMPKEMLPVVNKPLIQYAVEEALEAGLSEIGIVTGKGKRSLEDHFDISYELEHQIRNTDKEKYLVGIRRLIDECTFAYTRQVEMKGLGHAILTGRPLIGDEPFAVVLADDLCLNLEGDSVLKQMVKLYNQFRCSIVAIQEVPPEETNKYGVIAGEMIRDDIFRVNTMVEKPKPEEAPSNLAIIGRYILTPDIFDLIEQTEPGKGGEIQITDALMKQAQDGCVLAYKFKGKRFDCGSAEGYIEATNFCYENLYKTGKAH | 4 | 3.2 | 2.36 % of WT | 1.2 |  |  |  |  |  |
